# Test results reported in patent publication US20210371505A1.
# How the values were obtained:
# Assay in all cases: cell-based or functional assay
# [1] = target: Hemagglutinin of influenza virus A/Philippines/01/1982 (H3N2) (Influenza A virus A/Philippines/01/1982 (H3N2))
# [2] = target: Hemagglutinin of influenza virus A/Aichi/02/1968-PR8-X31 (H3N2) (Influenza A virus A/Aichi/02/1968-PR8-X31 (H3N2)) (UniProt P03437)
# [3] = target: Hemagglutinin of influenza virus A/Shanghai/01/2013-PR8 (H7N9) (Influenza A virus A/Shanghai/01/2013-PR8 (H7N9))
substance,measurement,setting,value
Irrelevant/negative hIgG1 control (antibody),"IC50 of neutralization, cell viability microneutralization assay on MDCK cells",[1],> 3.33 µM
same,"IC50 of neutralization, cell viability microneutralization assay on MDCK cells",[2],> 0.833 µM
same,"IC50 of neutralization, cell viability microneutralization assay on MDCK cells",[3],> 6.67 µM
